This note sets out measurements from article PMC7948450.

The assay addresses ancestral flavin-containing monooxygenase 1 (AncFMO1), reconstructed mammalian ancestor of FMO1 (reconstructed mammalian ancestor). The assay can be described thus: crystal structure; AncFMO1 12.5 mg/ml with 1.0 mM NADP+ in storage buffer with 0.03% DDM; sitting drop, 20 °C, 100 mM Hepes pH 7.5, PEG 4000 10%, glycerol 20%; 3.0 Å; asymmetric unit of two dimers.

In general, stoichiometry N refers to a count of units in the complex or per binding partner. As to “ancestral flavin-containing monooxygenase 1 (AncFMO1), reconstructed mammalian ancestor of FMO1 (enzyme)”, the stoichiometry N worked out at 2.
